What was measured:
[1] = biological target: FVIII-XTEN-His-Myc, XTEN insertion A1, 40, AG144 (human); experiment: sandwich ELISA, antibody capture, anti-Myc detection, normalised to anti-His capture
[2] = biological target: FVIII-XTEN-His-Myc, XTEN insertion A3, 1656, AG144 (human); experiment: as above
[3] = biological target: FVIII-XTEN-His-Myc, XTEN insertion A1, 18, AE144 (human); experiment: as above
[4] = biological target: FVIII-XTEN-His-Myc, XTEN insertion A2, 399, AE144 (human); experiment: as above
[5] = biological target: FVIII-XTEN-His-Myc, XTEN insertion A1, 26, AE144 (human); experiment: as above
[6] = biological target: FVIII-XTEN-His-Myc, XTEN insertion A1, 18, AG144 (human); experiment: as above
[7] = biological target: FVIII-XTEN-His-Myc, XTEN insertion A1, 26, AG144 (human); experiment: as above
[8] = biological target: FVIII-XTEN-His-Myc, XTEN insertion A1, 40, AE144 (human); experiment: as above
[9] = biological target: FVIII-XTEN-His-Myc, XTEN insertion A2, 403, AG144 (human); experiment: as above
[10] = biological target: FVIII-XTEN-His-Myc, XTEN insertion A2, 403, AE144 (human); experiment: as above
[11] = biological target: FVIII-His-Myc (non-XTEN containing FVIII-His-Myc protein) (human); experiment: as above
pBC0149 (human) = pBC0149 (human) (UniProt P00451); experiment: cell-based or functional assay
[12] = biological target: pBC0114 BDD FVIII base construct (pcDNA4-FVIII_4-…-Myc-SPATG-His) (human) (UniProt P00451); experiment: cell-based or functional assay

| Substance | Concentration on aFVIII/Myc ÷ concentration on aHis/Myc [1] | Concentration on aFVIII/Myc ÷ concentration on aHis/Myc [2] | Concentration on aFVIII/Myc ÷ concentration on aHis/Myc [3] | Concentration on aFVIII/Myc ÷ concentration on aHis/Myc [4] | Concentration on aFVIII/Myc ÷ concentration on aHis/Myc [5] | Concentration on aFVIII/Myc ÷ concentration on aHis/Myc [6] | Concentration on aFVIII/Myc ÷ concentration on aHis/Myc [7] | Concentration on aFVIII/Myc ÷ concentration on aHis/Myc [8] | Concentration on aFVIII/Myc ÷ concentration on aHis/Myc [9] | Concentration on aFVIII/Myc ÷ concentration on aHis/Myc [10] | Concentration on aFVIII/Myc ÷ concentration on aHis/Myc [11] | Ratio to Control (pBC0149 (human)) | Relative Remaining Activity (pBC0149 (human)) | Ratio to Control [12] |
| --- | --- | --- | --- | --- | --- | --- | --- | --- | --- | --- | --- | --- | --- | --- |
| GMA-8021 anti-FVIII monoclonal antibody (Green Mountain Antibodies) | 164% | 153% | 129% | 100% | 155% | 150% | 157% | 137% | 104% | 103% | 92% | 1.3 | 0.2 | 1 |
| GMA8008 FVIII inhibitor antibody | – | – | – | – | – | – | – | – | – | – | – | 0.8 | 0.1 | 1 |
| ESH8 anti-FVIII antibody (American Diagnostica Inc.) | 153% | 158% | 130% | 140% | 87% | 131% | 147% | 147% | 129% | 141% | 104% | – | – | – |

Reference: patent US20230322900A1
